Experiment [1] concerns the target Aleuria aurantia lectin (Aleuria aurantia) (UniProt P18891). Kind of experiment: BLI; competition with L-Fuc: AAL-loaded biosensor blocked with 0.1 M L-Fuc in the second baseline step, and the mucin sample incubated with L-Fuc (BSM 1 μM to 0.1 M; MUC5B 1 μM to 100 μM). In general terms: Biolayer interferometry detects binding as a change in optical thickness at a sensor tip.

The target is the same in experiment [2]. Description: BLI; biotinylated AAL (1.5 μg/mL) loaded on High Precision Streptavidin (SAX) biosensors, mucin in solution; Octet RED96, kinetics mode, 25°C, 1000 rpm, sample diluent.

UniProt P18891, sequence (P18891 whole entry): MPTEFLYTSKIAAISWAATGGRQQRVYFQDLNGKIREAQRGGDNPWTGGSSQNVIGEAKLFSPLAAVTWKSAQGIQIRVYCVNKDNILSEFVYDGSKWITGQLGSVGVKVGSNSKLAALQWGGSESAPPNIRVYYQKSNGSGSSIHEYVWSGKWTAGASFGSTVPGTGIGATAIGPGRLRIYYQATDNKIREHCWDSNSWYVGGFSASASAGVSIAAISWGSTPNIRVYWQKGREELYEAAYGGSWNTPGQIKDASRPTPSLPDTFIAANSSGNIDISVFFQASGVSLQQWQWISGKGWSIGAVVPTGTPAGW

In the case of “Bovine Submaxillary Mucin (natural protein)”, in experiment [1], the fold lower association with 100 μM Fuc than without Fuc came out at 5 times lower. The substance further displayed a fold lower binding response than MUC5B in experiment [2] of 10 times lower.

The values are drawn from publication PMC5760085.
